Measured values reported in patent publication US6432920B1, “Nck SH3 binding peptides” (Cytogen Corporation, priority 1994, dated 2002).

Assays:
[1] = molecular target: T1, Src SH3-GST (Homo sapiens, UniProt P12931); experiment: Phage clone binding to immobilized GST-SH3 (elution titering / anti-phage ELISA); settings: FIG. 14
T1 construct: Bacterially expressed Src SH3 glutathione-S-transferase (Src-GST) fusion protein was purified from bacterial lysates; made in house; host or cells: bacteria (pGEX vector)
Method: Library screens were performed as previously described. Kay, B. K., et al., in Gene (1993) 128:59-65. Briefly, 1'10^11 pfu TSAR 9, TSAR 12, or R8C phage in Buffer A were incubated in a Src SH3-GST-coated well for 2 hours. The wells were washed, and bound phage were eluted with 100 μL 50 mM glycine-HCl (pH 2.2), transferred to a new well, and neutralized with […] 200 mM NaHPO4 (pH 7.0). Recovered phage were used to infect 1×10^9 DH5αF′ E. coli cells in 20 mL 2×YT; the infected cells were grown overnight, resulting in a 1000- to 10,000-fold amplification of phage titer. Amplified phage were panned twice more, as above, excepting the amplification step. Binding phage recovered after the third round of panning were plated at a low density on a lawn of DH5αF′ E. coli cells to yield isolated plaques for clonal analysis. […]
Indeed, the ability of isolated phage clones to bind to several SH3 domains derived from a variety of different proteins can be investigated by the manner described above. […] From these experiments, the relative specificity of different Src SH3 binding clones for SH3 domains derived from other proteins is determined.
To evaluate the binding of isolates to various targets proteins, enzyme-linked-immuno-assays (ELISA) were also performed. […] Plates are read with a plate reader (Molecular Devices, Menlo Park, Calif.) at 405 nm wavelength. […]

[2] = molecular target: T2, Yes SH3 (Homo sapiens, UniProt P07947); experiment: Phage clone binding to immobilized GST-SH3 (anti-phage ELISA); settings: FIG. 14
T2 construct: a construct expressing the SH3 domain of Yes was obtained from Dr. Marius Sudol (Rockefeller University); made in house; host or cells: bacteria (pGEX vector)
Method: Indeed, the ability of isolated phage clones to bind to several SH3 domains derived from a variety of different proteins can be investigated by the manner described above. GST-SH3 fusion proteins containing SH3 domains from a variety of different proteins are bound to microliter wells. An aliquot of the aforementioned phage stocks (50 μL) is introduced into wells containing the different GST-SH3 fusion proteins. […] From these experiments, the relative specificity of different Src SH3 binding clones for SH3 domains derived from other proteins is determined.
To evaluate the binding of isolates to various targets proteins, enzyme-linked-immuno-assays (ELISA) were also performed. […] Plates are read with a plate reader (Molecular Devices, Menlo Park, Calif.) at 405 nm wavelength.
Library screens were performed as described in Sparks, A., B., et al., in Methods in Enzymology, (1995) 255:498-509. […] The wells were washed five times with PBS+0.1% Tween 20, and bound phage were detected by anti-phage ELISA according to the manufacturer's instructions (Pharmacia, Piscataway, N.J.). […]
To explore further the capacity of SH3 domains to discriminate between different SH3 ligands, we investigated the binding of phage expressing various peptide ligands to a panel of SH3 domains. […] The wells were washed several times, and bound phage were detected with an anti-phage antibody (see FIG. 14). […]

[3] = molecular target: T1, Src SH3-GST; experiment: Biotinylated synthetic peptide binding ELISA to immobilized Src SH3-GST; settings: not tested

T2 sequence (P07947 91-152 limits assumed): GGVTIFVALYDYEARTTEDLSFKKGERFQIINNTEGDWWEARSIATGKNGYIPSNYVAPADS

Row | Sequence | cross-reactivity of Src SH3 domain with phage clone selected with another SH3 domain [1] | cross-reactivity of Yes SH3 domain with phage clone selected with another SH3 domain [2] | surmised binding to a variety of SH3 domains [3]
1 | MPPPVPPRPPGTL | cross-reacted | cross-reacted | –
2 | RSTPAPPVPPRTTR | – | – | strong but generic binding
